The source of these data is US20040038338A1, “Influence of LRP cytoplasmic domain on Abeta production” (priority 2001, published 2004).

In one assay the target is T1, Fe65 (UniProt O00213 1-710, limits assumed).
T1 construct: also called Fe65 adaptor protein; in vitro translated Fe65
T1 sequence (looked up): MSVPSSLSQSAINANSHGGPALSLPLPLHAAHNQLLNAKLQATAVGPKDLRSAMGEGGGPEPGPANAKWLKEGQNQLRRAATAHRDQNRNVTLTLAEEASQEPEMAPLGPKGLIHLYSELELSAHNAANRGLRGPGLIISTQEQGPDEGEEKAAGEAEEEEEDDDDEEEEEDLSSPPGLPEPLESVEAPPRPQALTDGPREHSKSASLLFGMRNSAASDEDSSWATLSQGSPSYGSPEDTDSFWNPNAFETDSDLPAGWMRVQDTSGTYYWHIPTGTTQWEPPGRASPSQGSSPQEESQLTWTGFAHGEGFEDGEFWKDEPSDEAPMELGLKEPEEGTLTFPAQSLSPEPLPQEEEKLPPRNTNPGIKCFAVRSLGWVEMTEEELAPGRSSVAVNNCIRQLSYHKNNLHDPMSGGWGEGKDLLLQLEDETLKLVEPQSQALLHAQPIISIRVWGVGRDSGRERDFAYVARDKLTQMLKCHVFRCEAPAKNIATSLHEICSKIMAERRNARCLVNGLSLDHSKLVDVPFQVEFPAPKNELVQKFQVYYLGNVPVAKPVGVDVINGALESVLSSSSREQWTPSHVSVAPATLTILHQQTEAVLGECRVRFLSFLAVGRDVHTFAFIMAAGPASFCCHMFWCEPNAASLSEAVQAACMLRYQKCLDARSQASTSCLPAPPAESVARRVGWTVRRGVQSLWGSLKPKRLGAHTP
In words: GST pull down of in vitro translated Fe65.

The next assay relates to APP processing. In words: Overexpression of Fe65 in APP751-transfected CHO cells, APPs and Aβ. It is filed as cell-based. The following applies: preliminary studies. An excerpt: In the second set of experiments, Inventors determine whether overexpression of Fe65 impairs APP and LRP processing by acting as a dominant or competitive negative mutant. Inventors briefly mentioned the preliminary results above with APPs and Aβ when Fe65 was overexpressed in APP75 1-transfected CHO cells. These studies are repeated for reliable quantitation and other aspects of APP trafficking are examined, as performed in the earlier aims. Inventors also assess the binding and uptake of LRP ligands. To ascertain that these outcomes are due to inhibition by Fe65, Inventors overexpress Fe65 mutants that cannot bind either APP or LRP, i.e., ΔPID2 and ΔPID 1, respectively. If these mutant constructs mimic the results from full length Fe65 even though it cannot bind it's known substrate, then it supports the idea that Fe65 or Fe65L in excess behaves as an inhibitor. […] The premise is that an overabundance of Fe65 result in the failure to link up limiting amounts of LRP with APP. Thus, co-expression of Fe65 with LRP should greatly diminish the effects of Fe65 expressed by itself In the third set of experiments, Inventors test the concept that other APP and LRP interacting proteins with only single binding sites, such as mDab, X11/Mint-1 and JIP-1, compete for binding with Fe65 or Fe65L, and by displacing Fe65, produce a partial loss of function with respect to APP processing. […]

Another assay relates to Aβ release. The following applies: exogenous RAP, cells overexpressing APP751; cited from earlier work.

B1: GST fusion protein of the LRP cytoplasmic tail with a single alanine substitution at L of the YATL motif (other, not shown: a dimerising Fc or GST; small tags and cut ends)
chain: KRRVQGAKGFQHQRMTNGAMNVEIGNPTYKMYEGGEPDDVGGLLDADFALDPDKPTNFTNPVYATAYMGGHGSRHSLASTDEKRELLGRGPEDEIGDPLA
modifications: N-terminal GST fusion, not carried in the letters
notes: Position 4510 is derived from the motif's printed limits (4504 to 4510)
As for B1, the “reduction of binding against wild type LRP” value (shortened to “reduction of binding”) in the assay with Fe65 was above 50%.

B2: GST fusion protein of the LRP cytoplasmic tail with a single alanine substitution at N of the second NPXY motif (other, not shown: a dimerising Fc or GST; small tags and cut ends)
chain: KRRVQGAKGFQHQRMTNGAMNVEIGNPTYKMYEGGEPDDVGGLLDADFALDPDKPTNFTAPVYATLYMGGHGSRHSLASTDEKRELLGRGPEDEIGDPLA
modifications: N-terminal GST fusion, not carried in the letters
notes: Position 4504 is derived from the motif's printed limits (4504 to 4510)
As for B2, the “reduction of binding” value in the assay with Fe65 was above 50%.

B3: GST fusion protein of the LRP cytoplasmic tail with a single alanine substitution at Y of the second NPXY motif (other, not shown: a dimerising Fc or GST; small tags and cut ends)
chain: KRRVQGAKGFQHQRMTNGAMNVEIGNPTYKMYEGGEPDDVGGLLDADFALDPDKPTNFTNPVAATLYMGGHGSRHSLASTDEKRELLGRGPEDEIGDPLA
modifications: N-terminal GST fusion, not carried in the letters
Turning to B3, the “reduction of binding” value in the assay with Fe65 is above 50%.

B4: Fe65: cytosolic adaptor protein with separate binding domains (PID1, PID2) for LRP and APP, overexpressed in cells (protein)
chain: MSVPSSLSQSAINANSHGGPALSLPLPLHAAHNQLLNAKLQATAVGPKDLRSAMGEGGGPEPGPANAKWLKEGQNQLRRAATAHRDQNRNVTLTLAEEASQEPEMAPLGPKGLIHLYSELELSAHNAANRGLRGPGLIISTQEQGPDEGEEKAAGEAEEEEEDDDDEEEEEDLSSPPGLPEPLESVEAPPRPQALTDGPREHSKSASLLFGMRNSAASDEDSSWATLSQGSPSYGSPEDTDSFWNPNAFETDSDLPAGWMRVQDTSGTYYWHIPTGTTQWEPPGRASPSQGSSPQEESQLTWTGFAHGEGFEDGEFWKDEPSDEAPMELGLKEPEEGTLTFPAQSLSPEPLPQEEEKLPPRNTNPGIKCFAVRSLGWVEMTEEELAPGRSSVAVNNCIRQLSYHKNNLHDPMSGGWGEGKDLLLQLEDETLKLVEPQSQALLHAQPIISIRVWGVGRDSGRERDFAYVARDKLTQMLKCHVFRCEAPAKNIATSLHEICSKIMAERRNARCLVNGLSLDHSKLVDVPFQVEFPAPKNELVQKFQVYYLGNVPVAKPVGVDVINGALESVLSSSSREQWTPSHVSVAPATLTILHQQTEAVLGECRVRFLSFLAVGRDVHTFAFIMAAGPASFCCHMFWCEPNAASLSEAVQAACMLRYQKCLDARSQASTSCLPAPPAESVARRVGWTVRRGVQSLWGSLKPKRLGAHTP
In the case of B4, in the assay with APP processing, the APPs secretion result is “augmented” and the Aβ release entry is on record as “reduction”.

B5: RAP: 39 kDa receptor associated protein, an LRP chaperone molecule that blocks binding of all known LRP ligands (protein, UniProt P30533 35-357, looked up)
Alpha-2-macroglobulin …: YSREKNQPKPSPKRESGEEFRMEKLNQLWEKAQRLHLPPVRLAELHADLKIQERDELAWKKLKLDGLDEDGEKEARLIRNLNVILAKYGLDGKKDARQVTSNSLSGTQEDGLDDPRLEKLWHKAKTSGKFSGEELDKLWREFLHHKEKVHEYNVLLETLSRTEEIHENVISPSDLSDIKGSVLHSRHTELKEKLRSINQGLDRLRRVSHQGYSTEAEFEEPRVIDLWDLAQSANLTDKELEAFREELKHFEAKIEKHNHYQKQLEIAHEKLRHAESVGDGERVSRSREKHALLEGRTKELGYTVKKHLQDLSGRISRARHNEL
B5: the Aβ release entry with Aβ release is reported as “dramatically reduced”.
